From publication PMC3506534, “LL-37 Induces Polymerization and Bundling of Actin and Affects Actin Structure” (PLoS ONE, 2012)

Molecular target: rabbit skeletal muscle α-actin (rabbit) (UniProt P68135)

Chain of DNase1 (P00639 23-282): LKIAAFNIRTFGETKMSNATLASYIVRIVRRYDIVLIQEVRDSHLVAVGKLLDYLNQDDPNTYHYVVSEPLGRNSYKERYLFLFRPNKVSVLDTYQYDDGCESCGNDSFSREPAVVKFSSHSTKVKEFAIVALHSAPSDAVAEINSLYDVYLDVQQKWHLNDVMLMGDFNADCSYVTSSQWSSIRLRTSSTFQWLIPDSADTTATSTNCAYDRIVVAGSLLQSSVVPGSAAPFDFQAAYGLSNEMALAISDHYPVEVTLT

“DNase1 (from UniProt P00639 23-282) (enzyme)” gave a disappearance of Mg-F-actin bundles (bundled by 9 µM LL-37) and depolymerization of the filaments after 6 µM DNase1 (low and high speed sedimentation) of 100%.
